Results from US20220411531A1 (SUMGEN MAB BEIJING BIOTECH, published 2022).

T1: AXL on the surfaces of human tumour cells (A549, MDA-MB-231, 786-O) (human, UniProt P30530 27-894)
T1 construct: Endogenous AXL on human tumour cell lines; The tie to the cell-line protein rests on this general definition only; also called cell surface antigen
T1 sequence: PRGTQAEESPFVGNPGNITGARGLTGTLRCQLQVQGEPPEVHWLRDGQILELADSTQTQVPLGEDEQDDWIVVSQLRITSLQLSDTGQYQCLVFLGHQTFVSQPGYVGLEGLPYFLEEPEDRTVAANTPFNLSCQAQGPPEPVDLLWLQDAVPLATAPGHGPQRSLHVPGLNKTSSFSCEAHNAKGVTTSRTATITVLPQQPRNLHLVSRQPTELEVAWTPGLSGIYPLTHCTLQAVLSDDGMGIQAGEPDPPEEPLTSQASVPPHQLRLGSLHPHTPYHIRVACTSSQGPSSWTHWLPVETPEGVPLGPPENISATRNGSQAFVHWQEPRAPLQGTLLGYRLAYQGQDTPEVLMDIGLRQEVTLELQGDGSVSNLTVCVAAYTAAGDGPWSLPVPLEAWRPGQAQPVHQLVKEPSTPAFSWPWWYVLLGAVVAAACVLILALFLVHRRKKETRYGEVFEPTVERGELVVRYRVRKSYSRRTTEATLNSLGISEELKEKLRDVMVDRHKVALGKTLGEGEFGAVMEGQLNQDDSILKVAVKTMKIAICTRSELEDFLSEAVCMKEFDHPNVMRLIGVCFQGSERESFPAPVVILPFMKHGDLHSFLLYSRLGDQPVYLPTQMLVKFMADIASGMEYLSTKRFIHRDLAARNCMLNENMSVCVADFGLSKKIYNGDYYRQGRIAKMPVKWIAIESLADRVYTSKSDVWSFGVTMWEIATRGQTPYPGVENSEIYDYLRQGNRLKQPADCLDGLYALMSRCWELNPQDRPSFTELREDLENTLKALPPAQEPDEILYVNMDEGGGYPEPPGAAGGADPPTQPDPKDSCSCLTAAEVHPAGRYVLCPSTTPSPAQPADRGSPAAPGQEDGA


Experiments:
[1] = biological target: T1, AXL on the surfaces of human tumour …; assay: flow cytometry on 786-O cells (second experiment, FIG. 10); 786-O cells; FIG. 10
Protocol: (§1) Cells in a logarithmic growth phase were collected; the cell density was regulated to 5×10⁶ cells/mL; and pre-cooling was performed on ice. The antibodies 6G12M11, 6G12M21, 6G12M31, and 6G12M41 were diluted to 20 μg/ml with pre-cooled normal saline containing 2% FBS. 100 μl of cells were taken, and an equal volume of each of the foregoing diluted antibodies was added to the cells to react for 30 minutes at 4° C. in the dark. After the completion of reaction, the cells were washed twice with pre-cooled physiological saline containing 2% FBS (6000 rpm, 45 s). The secondary antibody PE Mouse Anti-Human IgG (BD Pharmingen) was diluted at 1:5 with pre-cooled physiological saline containing 2% FBS, and 100 μL of the secondary antibody was taken for resuspending the cells, with a reaction conducted for 30 minutes at 4° C. in the dark. After the reaction, the cells were washed twice with pre-cooled physiological saline containing 2% FBS (6000 rpm, 45 s). The cells were resuspended by using 400 μl of 1% paraformaldehyde. The binding of antibodies to cell surface antigens was analyzed by means of a flow cytometer (BD Calibur).

[2] = biological target: T1, AXL on the surfaces of human tumour …; assay: flow cytometry on MDA-MB-231 cells (second experiment, FIG. 9); MDA-MB-231 cells; FIG. 9
Protocol: as §1

[3] = biological target: T1, AXL on the surfaces of human tumour …; assay: flow cytometry on MDA-MB-231 cells
Protocol: as §1

[4] = biological target: T1, AXL on the surfaces of human tumour …; assay: flow cytometry on A549 cells
Protocol: as §1

[5] = biological target: T1, AXL on the surfaces of human tumour …; assay: flow cytometry on 786-O cells
Protocol: as §1

[6] = biological target: T1, AXL on the surfaces of human tumour …; assay: flow cytometry on 786-O cells (second experiment, FIG. 10); 786-O cells; second experiment, FIG. 10
Protocol: as §1

[7] = biological target: T1, AXL on the surfaces of human tumour …; assay: flow cytometry on MDA-MB-231 cells (second experiment, FIG. 9); MDA-MB-231 cells; second experiment, FIG. 9
Protocol: as §1

Row | Binder | EC50 [1] [mg/L] | EC50 [2] [mg/L] | EC50 [3] [mg/L] | EC50 [4] [mg/L] | EC50 [5] [mg/L] | EC50 [6] [mg/L] | EC50 [7] [mg/L]
1 | antibody 6G12M31 (antibody, V domains shown) VH: QVQLVQSGPGLVKPSQSLSLTCSVTGFSISSGYYWNWIRQFPGQKLEWMGYRSYDGSNNYDPSLKNRISITRDTSKNQFFLKLNSVTSEDTATYYCARGWLLHYTMDYWGQGTTVTVSS VL: DIVMTQSPSSVSVTLGQSASISCRSSRSLLHSNGFTYLYWYLQKPGQSPQLLIYQMSNLASGVPDRFSGSGSGTDFTLKISRVEAEDVGVYYCGQNLELPLTFGGGTKLEIK | 0.53 | 0.6 |  |  |  |  | 
2 | antibody 6G12M41 (antibody, V domains shown) VH: QVQLVQSGPGLVKPSQSLSLTCSVTGFSISSGYYWNWIRQFPGQKLEWMGYRSYDGSNNYGPSLKNRISITRDTSKNQFFLKLNSVTSEDTATYYCARGWLLHYTMDYWGQGTTVTVSS VL: DIVMTQSPSSVSVTLGQSASISCRSSRSLLHSNGFTYLYWYLQKPGQSPQLLIYQMSNLASGVPDRFSGSGSGTDFTLKISRVEAEDVGVYYCGQNLELPLTFGGGTKLEIK | 0.47 | 0.54 |  |  |  |  | 
3 | antibody 6G12M11 (antibody, human IgG1, kappa, V domains shown) VH: QVQLVQSGPGLVKPSQSLSLTCAVTGFSISSGYYWNWIRQFPGQKLEWMGYRSYDGSNNYNPSLKNRISITRDTSKNQFFLKLNSVTSEDTATYYCARGWLLHYTMDYWGQGTTVTVSS VL: EIVMTQSPSSVSVTLGQSASISCRSSRSLLHSNGFTYLYWYLQKPGQSPQLLIYQMSNLASGVPDRFSGSGSGTDFTLKISRVEAEDVGVYYCGQNLELPLTFGGGTKLEIKR |  |  | 0.59 | 0.46 | 0.43 |  | 
4 | antibody 6G12M21 (antibody, human IgG1, kappa, V domains shown) VH: QVQLVQSGPGLVKPSQSLSLTCSVTGFSISSGYYWNWIRQFPGQKLEWMGYRSYDGSNNYNPSLKNRISITRDTSKNQFFLKLNSVTSEDTATYYCARGWLLHYTMDYWGQGTTVTVSS VL: DIVMTQSPSSVSVTLGQSASISCRSSRSLLHSNGFTYLYWYLQKPGQSPQLLIYQMSNLASGVPDRFSGSGSGTDFTLKISRVEAEDVGVYYCGQNLELPLTFGGGTKLEIKR |  |  | 0.39 | 0.78 | 0.31 | 0.4 | 0.64
